These results are taken from PMC11695829, “DSIF factor Spt5 coordinates transcription, maturation and exoribonucleolysis of RNA polymerase II transcripts” (Nature Communications, 2025).

In test [1] the target is C-terminally truncated Xrn2 (residues 1–885), WT (S. pombe).
Test [2] has as its target T1, Full-length Spt4/5 heterodimer (DSIF) (S. pombe, UniProt O13936 1-990; Q9P7K8 1-105).
T1 construct: Spt5 of S. pombe, full length; Spt4 of S. pombe, full length; Co-expressed heterodimer, used as one preformed complex in all in vitro experiments; Only the Kow5 domain of Spt5 is seen in the cryo-EM map; also called Spt5-Spt4; Spt5
T1 sequence (looked up) 1: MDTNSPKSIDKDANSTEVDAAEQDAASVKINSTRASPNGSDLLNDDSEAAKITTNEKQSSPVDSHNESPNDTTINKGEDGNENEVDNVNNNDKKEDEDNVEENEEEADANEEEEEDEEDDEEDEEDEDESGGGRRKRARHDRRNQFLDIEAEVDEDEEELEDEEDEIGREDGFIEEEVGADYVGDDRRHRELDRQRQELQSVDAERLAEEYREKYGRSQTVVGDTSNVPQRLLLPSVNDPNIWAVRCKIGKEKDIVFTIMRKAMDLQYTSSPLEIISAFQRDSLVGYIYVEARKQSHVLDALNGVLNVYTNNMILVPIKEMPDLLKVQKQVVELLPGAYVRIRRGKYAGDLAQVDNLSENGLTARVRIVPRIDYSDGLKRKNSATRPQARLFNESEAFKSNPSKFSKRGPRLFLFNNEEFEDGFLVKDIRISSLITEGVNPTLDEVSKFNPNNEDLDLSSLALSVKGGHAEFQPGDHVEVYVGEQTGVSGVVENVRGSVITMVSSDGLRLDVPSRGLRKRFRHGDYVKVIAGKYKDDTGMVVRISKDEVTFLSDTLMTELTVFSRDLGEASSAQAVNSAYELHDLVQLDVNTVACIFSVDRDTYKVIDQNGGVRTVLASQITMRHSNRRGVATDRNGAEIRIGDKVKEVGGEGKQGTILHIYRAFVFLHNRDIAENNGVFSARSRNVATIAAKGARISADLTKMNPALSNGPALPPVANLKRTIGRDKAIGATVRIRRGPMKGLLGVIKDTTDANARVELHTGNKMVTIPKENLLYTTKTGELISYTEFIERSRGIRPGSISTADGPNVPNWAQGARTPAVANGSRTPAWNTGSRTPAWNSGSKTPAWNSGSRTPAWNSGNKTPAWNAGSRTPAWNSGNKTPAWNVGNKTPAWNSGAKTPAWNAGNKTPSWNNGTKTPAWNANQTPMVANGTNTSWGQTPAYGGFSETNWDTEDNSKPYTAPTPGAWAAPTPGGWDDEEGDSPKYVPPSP
T1 sequence (looked up) 2: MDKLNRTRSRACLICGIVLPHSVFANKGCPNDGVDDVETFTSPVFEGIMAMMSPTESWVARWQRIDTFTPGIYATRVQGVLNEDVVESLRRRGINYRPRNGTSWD
As to the kind of experiment: pull-down; Rai1 immobilised on beads and challenged with Xrn2 or Xrn2/Spt4/5; no Pol II. The following applies: both partners purified.

B1: Kow5-sCTR (Spt5 region 720 to 874 aa, N-terminal His-tag) (domain or fragment)
chain: LKRTIGRDKAIGATVRIRRGPMKGLLGVIKDTTDANARVELHTGNKMVTIPKENLLYTTKTGELISYTEFIERSRGIRPGSISTADGPNVPNWAQGARTPAVANGSRTPAWNTGSRTPAWNSGSKTPAWNSGSRTPAWNSGNKTPAWNAGSRTPA
Regarding B1, the half-life of normalised anisotropy (a proxy for substrate half-life) in the degradation of P-RNA-FAM by Xrn2, fluorescence anisotropy; decrease in the presence of Kow5-sCTR in test [1] worked out at 3 fold.

B2: full-length Rai1 Strep-tagged (natural protein, S. pombe, UniProt O13836 1-352, looked up)
chain: MLREFSFYDVPPAHVPPVSEPLEIACYSLSRDRELLLDDSKLSYYYPPPLFSDLNTGFPNRFHPPKSDPDPISIVKDVLMTKGIQMNSSFLTWRGLITKIMCAPLDPRNHWETYLVMDPTSGIIMMEERTRSETSYANQDRMCYWGYKFEAISTLPEIWDACSRDQIEQRDNQDVVPDEQYCSIVKINIGKSKLILAGEVDCIWDKKPCSAKESDVHSDDGTIEEDASNAENPNLHYVELKTSKKYPLENYGMRKKLLKYWAQSFLLGIGRIIIGFRDDNGILIEMKELFTHQIPKMLRPYFKPNDWTPNRLLVVLEHALEWIKQTVKQHPPSTEFTLSYTGGSKLVLRQII
notes: source: Rosetta E. coli, purified (StrepTrap HP, Superdex 200)
Regarding B2, the binding result in test [2] was “binds”.
